Assay results reported in patent US20100015126A1 (published 2010).

T1: fibrin (immobilized, formed from fibrinogen with factor IIa) (UniProt P02671 36-629; P02675 45-491; P02679 27-437)
T1 sequence (looked up) 1: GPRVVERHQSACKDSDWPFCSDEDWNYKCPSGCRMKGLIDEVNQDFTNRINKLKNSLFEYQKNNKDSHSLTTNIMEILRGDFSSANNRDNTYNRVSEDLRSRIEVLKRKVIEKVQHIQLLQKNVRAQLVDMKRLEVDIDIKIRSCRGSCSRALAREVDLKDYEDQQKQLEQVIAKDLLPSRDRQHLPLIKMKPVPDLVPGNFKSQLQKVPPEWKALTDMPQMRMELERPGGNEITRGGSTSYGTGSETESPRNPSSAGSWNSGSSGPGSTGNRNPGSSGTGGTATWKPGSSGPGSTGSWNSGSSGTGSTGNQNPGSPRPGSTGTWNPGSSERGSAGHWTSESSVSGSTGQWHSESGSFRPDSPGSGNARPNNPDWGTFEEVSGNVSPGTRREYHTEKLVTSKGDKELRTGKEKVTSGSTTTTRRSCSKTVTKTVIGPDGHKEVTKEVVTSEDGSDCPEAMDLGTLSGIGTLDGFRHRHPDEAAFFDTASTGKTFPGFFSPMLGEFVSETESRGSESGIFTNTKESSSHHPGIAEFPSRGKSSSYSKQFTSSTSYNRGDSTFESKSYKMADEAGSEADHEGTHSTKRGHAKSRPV
T1 sequence (looked up) 2: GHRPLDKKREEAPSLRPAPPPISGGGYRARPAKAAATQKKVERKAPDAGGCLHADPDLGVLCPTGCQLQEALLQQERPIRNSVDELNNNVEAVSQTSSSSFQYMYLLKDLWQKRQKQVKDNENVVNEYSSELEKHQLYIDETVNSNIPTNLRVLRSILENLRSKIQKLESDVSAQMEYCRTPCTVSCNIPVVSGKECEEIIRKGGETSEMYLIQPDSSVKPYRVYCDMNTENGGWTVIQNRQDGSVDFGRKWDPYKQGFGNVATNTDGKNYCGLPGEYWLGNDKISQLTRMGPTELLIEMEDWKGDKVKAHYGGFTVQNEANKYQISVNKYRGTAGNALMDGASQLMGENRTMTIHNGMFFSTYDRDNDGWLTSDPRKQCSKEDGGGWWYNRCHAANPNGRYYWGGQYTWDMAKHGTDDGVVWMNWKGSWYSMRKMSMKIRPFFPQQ
T1 sequence (looked up) 3: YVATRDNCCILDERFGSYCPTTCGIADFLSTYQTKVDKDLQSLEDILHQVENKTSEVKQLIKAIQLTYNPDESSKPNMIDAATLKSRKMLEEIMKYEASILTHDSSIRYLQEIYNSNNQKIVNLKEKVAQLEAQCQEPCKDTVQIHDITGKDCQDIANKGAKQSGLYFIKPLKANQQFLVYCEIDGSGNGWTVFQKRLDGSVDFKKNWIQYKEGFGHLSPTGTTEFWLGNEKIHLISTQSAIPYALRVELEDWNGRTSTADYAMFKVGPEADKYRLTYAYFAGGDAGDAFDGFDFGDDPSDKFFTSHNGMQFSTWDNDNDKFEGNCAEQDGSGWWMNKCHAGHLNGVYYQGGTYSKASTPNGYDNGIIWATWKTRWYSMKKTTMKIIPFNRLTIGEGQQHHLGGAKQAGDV


Legend:
[1] = molecular target: recombinant human HSP90beta (human, UniProt P08238 1-724); assay: direct ELISA, coated ligand, HSP90 concentration series
[2] = molecular target: T1, fibrin (immobilized, formed from …); assay: direct ELISA, fibrin formed in wells, anti-His-tag detection
[3] = molecular target: T2, synthetic human amyloid-β(1-42) peptide (Aβ42t=0) (human); assay: direct ELISA, coated ligand, anti-His-tag detection
T2 construct: also called Aβ1-42

[4] = molecular target: T3, oxidized human plasma low density lipoprotein (oxLDL) with misfolded apolipoprotein B100 (human, UniProt P04114 28-4563); assay: direct ELISA, coated ligand, HSP60 concentration series
T3 construct: also called oxidized LDL

T2 sequence (peptide, as listed by the source limits assumed): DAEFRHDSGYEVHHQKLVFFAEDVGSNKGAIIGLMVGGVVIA
Sequence of recombinant human HSP90beta (P08238 whole entry): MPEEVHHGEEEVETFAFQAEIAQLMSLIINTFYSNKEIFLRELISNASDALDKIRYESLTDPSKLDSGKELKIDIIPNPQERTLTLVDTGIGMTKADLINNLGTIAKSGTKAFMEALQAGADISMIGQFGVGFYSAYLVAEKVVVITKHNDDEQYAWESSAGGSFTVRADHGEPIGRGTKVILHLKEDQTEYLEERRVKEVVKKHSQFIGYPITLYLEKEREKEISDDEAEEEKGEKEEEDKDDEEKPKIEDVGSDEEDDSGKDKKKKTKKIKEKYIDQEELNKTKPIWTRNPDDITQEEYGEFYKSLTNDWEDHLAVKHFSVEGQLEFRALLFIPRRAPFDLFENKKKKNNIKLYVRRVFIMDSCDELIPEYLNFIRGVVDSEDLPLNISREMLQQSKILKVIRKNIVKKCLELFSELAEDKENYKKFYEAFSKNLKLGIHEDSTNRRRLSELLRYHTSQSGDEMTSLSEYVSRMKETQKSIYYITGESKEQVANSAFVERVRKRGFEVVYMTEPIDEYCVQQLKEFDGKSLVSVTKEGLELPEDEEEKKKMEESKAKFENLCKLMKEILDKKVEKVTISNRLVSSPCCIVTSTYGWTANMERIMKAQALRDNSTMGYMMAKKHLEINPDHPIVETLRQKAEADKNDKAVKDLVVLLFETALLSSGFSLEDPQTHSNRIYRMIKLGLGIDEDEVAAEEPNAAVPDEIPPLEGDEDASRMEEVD

binding result [1]	binding result [2]	binding result [3]	binding result [4]	Binder
no binding	–	–	–	heat-denatured chicken ovalbumin (dOVA standard) (other, UniProt P01012 2-386, looked up, also called dOVA std; misfolded hen ovalbumin) GSIGAASMEFCFDVFKELKVHHANENIFYCPIAIMSALAMVYLGAKDSTRTQINKVVRFDKLPGFGDSIEAQCGTSVNVHSSLRDILNQITKPNDVYSFSLASRLYAEERYPILPEYLQCVKELYRGGLEPINFQTAADQARELINSWVESQTNGIIRNVLQPSSVDSQTAMVLVNAIVFKGLWEKAFKDEDTQAMPFRVTEQESKPVQMMYQIGLFRVASMASEKMKILELPFASGTMSMLVLLPDEVSGLEQLESIINFEKLTEWTSSNVMEERKIKVYLPRMKMEEKYNLTSVLMAMGITDVFSSSANLSGISSAESLKISQAVHAAHAEINEAGREVVGSAEAGVDAASVSEEFRADHPFLFCIKHIATNAVLFFGRCVSP
–	binds	binds	no binding	recombinant human HSP60 with N-terminal His-tag (other, UniProt P10809 27-573, looked up, not shown: small tags and cut ends, mature; also called His-HSP60) AKDVKFGADARALMLQGVDLLADAVAVTMGPKGRTVIIEQSWGSPKVTKDGVTVAKSIDLKDKYKNIGAKLVQDVANNTNEEAGDGTTTATVLARSIAKEGFEKISKGANPVEIRRGVMLAVDAVIAELKKQSKPVTTPEEIAQVATISANGDKEIGNIISDAMKKVGRKGVITVKDGKTLNDELEIIEGMKFDRGYISPYFINTSKGQKCEFQDAYVLLSEKKISSIQSIVPALEIANAHRKPLVIIAEDVDGEALSTLVLNRLKVGLQVVAVKAPGFGDNRKNQLKDMAIATGGAVFGEEGLTLNLEDVQPHDLGKVGEVIVTKDDAMLLKGKGDKAQIEKRIQEIIEQLDVTTSEYEKEKLNERLAKLSDGVAVLKVGGTSDVEVNEKKDRVTDALNATRAAVEEGIVLGGGCALLRCIPALDSLTPANEDQKIGIEIIKRTLKIPAMTIAKNAGVEGSLIVEKIMQSSSEVGYDAMAGDFVNMVEKGIIDPTKVVRTALLDAAGVASLLTTAEVVVTEIPKEEKDPGMGAMGGMGGGMGGGMF
